This is an account of results in patent US20150274841A1 (DYAX, published 2015).

To fix the notation:
B1: M0200-A10 (Fab, V domains shown)
VH: EVQLLESGGGLVQPGGSLRLSCAASGFTFSHYIMMWVRQAPGKGLEWVSGIYSSGGITVYADSVKGRFTISRDNSKNTLYLQMNSLRAEDTAVYYCAYRRTGVPRRDSFDIWGQGTMVTVSS
VL: DIQMTQSPSTLSASVGDRVTITCRASQSISSWLAWYQQKPGKAPNLLIYKASTLESGVPSRFSGSGSGTEFTLTISSLQPDDFATYYCQQYNTYWTFGQGTKVEIK
notes: HC CDR3 variant of M0162-A04, tested as Fab
B2: M0201-H06 (Fab, V domains shown)
VH: EVQLLESGGGLVQPGGSLRLSCAASGFTFSHYIMMWVRQAPGKGLEWVSGIYSSGGITVYADSVKGRFTISRDNSKNTLYLQMNSLRAEDTAVYYCAYRRTGVPRRDAFDIWGQGTMVTVSS
VL: DIQMTQSPSTLSASVGDRVTITCRASQSISSWLAWYQQKPGKAPNLLIYKASTLESGVPSRFSGSGSGTEFTLTISSLQPDDFATYYCQQYNTYWTFGQGTKVEIK
B3: M0201-A07 (Fab, V domains shown)
VH: EVQLLESGGGLVQPGGSLRLSCAASGFTFSHYIMMWVRQAPGKGLEWVSGIYSSGGITVYADSVKGRFTISRDNSKNTLYLQMNSLRAEDTAVYYCAYRRTGVPRRDEFDIWGQGTMVTVSS
VL: DIQMTQSPSTLSASVGDRVTITCRASQSISSWLAWYQQKPGKAPNLLIYKASTLESGVPSRFSGSGSGTEFTLTISSLQPDDFATYYCQQYNTYWTFGQGTKVEIK
B4: M0202-H03 (Fab, V domains shown)
VH: EVQLLESGGGLVQPGGSLRLSCAASGFTFSHYIMMWVRQAPGKGLEWVSGIYSSGGITVYADSVKGRFTISRDNSKNTLYLQMNSLRAEDTAVYYCAYRRTGVPRWDDFDIWGQGTMVTVSS
VL: DIQMTQSPSTLSASVGDRVTITCRASQSISSWLAWYQQKPGKAPNLLIYKASTLESGVPSRFSGSGSGTEFTLTISSLQPDDFATYYCQQYNTYWTFGQGTKVEIK
B5: M0202-C02 (Fab, V domains shown)
VH: EVQLLESGGGLVQPGGSLRLSCAASGFTFSHYIMMWVRQAPGKGLEWVSGIYSSGGITVYADSVKGRFTISRDNSKNTLYLQMNSLRAEDTAVYYCAYRRPGVPRRDAFDIWGQGTMVTVSS
VL: DIQMTQSPSTLSASVGDRVTITCRASQSISSWLAWYQQKPGKAPNLLIYKASTLESGVPSRFSGSGSGTEFTLTISSLQPDDFATYYCQQYNTYWTFGQGTKVEIK
B6: M0202-B04 (Fab, V domains shown)
VH: EVQLLESGGGLVQPGGSLRLSCAASGFTFSHYIMMWVRQAPGKGLEWVSGIYSSGGITVYADSVKGRFTISRDNSKNTLYLQMNSLRAEDTAVYYCAYRRSGVPRRDAFDIWGQGTMVTVSS
VL: DIQMTQSPSTLSASVGDRVTITCRASQSISSWLAWYQQKPGKAPNLLIYKASTLESGVPSRFSGSGSGTEFTLTISSLQPDDFATYYCQQYNTYWTFGQGTKVEIK
B7: M0200-E11 (Fab, V domains shown)
VH: EVQLLESGGGLVQPGGSLRLSCAASGFTFSHYIMMWVRQAPGKGLEWVSGIYSSGGITVYADSVKGRFTISRDNSKNTLYLQMNSLRAEDTAVYYCAYRRTGVPRRDAFDNWGQGTMVTVSS
VL: DIQMTQSPSTLSASVGDRVTITCRASQSISSWLAWYQQKPGKAPNLLIYKASTLESGVPSRFSGSGSGTEFTLTISSLQPDDFATYYCQQYNTYWTFGQGTKVEIK
notes: as for B1
B8: M0202-F06 (Fab, V domains shown)
VH: EVQLLESGGGLVQPGGSLRLSCAASGFTFSHYIMMWVRQAPGKGLEWVSGIYSSGGITVYADSVKGRFTISRDNSKNTLYLQMNSLRAEDTAVYYCAYRRTGVPRWDAFDIWGQGTMVTVSS
VL: DIQMTQSPSTLSASVGDRVTITCRASQSISSWLAWYQQKPGKAPNLLIYKASTLESGVPSRFSGSGSGTEFTLTISSLQPDDFATYYCQQYNTYWTFGQGTKVEIK
notes: as for B1
B9: M0201-A06 (Fab, V domains shown)
VH: EVQLLESGGGLVQPGGSLRLSCAASGFTFSHYIMMWVRQAPGKGLEWVSGIYSSGGITVYADSVKGRFTISRDNSKNTLYLQMNSLRAEDTAVYYCAYRRTGIPRRDVFDIWGQGTMVTVSS
VL: DIQMTQSPSTLSASVGDRVTITCRASQSISSWLAWYQQKPGKAPNLLIYKASTLESGVPSRFSGSGSGTEFTLTISSLQPDDFATYYCQQYNTYWTFGQGTKVEIK
notes: as for B1
B10: M0202-H05 (Fab, V domains shown)
VH: EVQLLESGGGLVQPGGSLRLSCAASGFTFSHYIMMWVRQAPGKGLEWVSGIYSSGGITVYADSVKGRFTISRDNSKNTLYLQMNSLRAEDTAVYYCAYRRTGVPRRDVFDIWGQGTMVTVSS
VL: DIQMTQSPSTLSASVGDRVTITCRASQSISSWLAWYQQKPGKAPNLLIYKASTLESGVPSRFSGSGSGTEFTLTISSLQPDDFATYYCQQYNTYWTFGQGTKVEIK
notes: as for B1
B11: M0202-Al2 (Fab, V domains shown)
VH: EVQLLESGGGLVQPGGSLRLSCAASGFTFSHYIMMWVRQAPGKGLEWVSGIYSSGGITVYADSVKGRFTISRDNSKNTLYLQMNSLRAEDTAVYYCAYQRTGVPRRDSFNIWGQGTMVTVSS
VL: DIQMTQSPSTLSASVGDRVTITCRASQSISSWLAWYQQKPGKAPNLLIYKASTLESGVPSRFSGSGSGTEFTLTISSLQPDDFATYYCQQYNTYWTFGQGTKVEIK
notes: HC CDR3 variant of M0162-A04, tested as Fab; also called M0202-A12 (probable reading)
B12: M0200-H07 (Fab, V domains shown)
VH: EVQLLESGGGLVQPGGSLRLSCAASGFTFSHYIMMWVRQAPGKGLEWVSGIYSSGGITVYADSVKGRFTISRDNSKNTLYLQMNSLRAEDTAVYYCAYRRTGVPRRNAFDNWGQGTMVTVSS
VL: DIQMTQSPSTLSASVGDRVTITCRASQSISSWLAWYQQKPGKAPNLLIYKASTLESGVPSRFSGSGSGTEFTLTISSLQPDDFATYYCQQYNTYWTFGQGTKVEIK
notes: as for B1
B13: M0202-A01 (Fab, V domains shown)
VH: EVQLLESGGGLVQPGGSLRLSCAASGFTFSHYIMMWVRQAPGKGLEWVSGIYSSGGITVYADSVKGRFTISRDNSKNTLYLQMNSLRAEDTAVYYCAYRRIGVPRRDAFDIWGQGTMVTVSS
VL: DIQMTQSPSTLSASVGDRVTITCRASQSISSWLAWYQQKPGKAPNLLIYKASTLESGVPSRFSGSGSGTEFTLTISSLQPDDFATYYCQQYNTYWTFGQGTKVEIK
notes: as for B1
B14: M0202-G03 (Fab, V domains shown)
VH: EVQLLESGGGLVQPGGSLRLSCAASGFTFSHYIMMWVRQAPGKGLEWVSGIYSSGGITVYADSVKGRFTISRDNSKNTLYLQMNSLRAEDTAVYYCAYRRTGVPRRDSFEIWGQGTMVTVSS
VL: DIQMTQSPSTLSASVGDRVTITCRASQSISSWLAWYQQKPGKAPNLLIYKASTLESGVPSRFSGSGSGTEFTLTISSLQPDDFATYYCQQYNTYWTFGQGTKVEIK
notes: as for B1
B15: M0201-H08 (Fab, V domains shown)
VH: EVQLLESGGGLVQPGGSLRLSCAASGFTFSHYIMMWVRQAPGKGLEWVSGIYSSGGITVYADSVKGRFTISRDNSKNTLYLQMNSLRAEDTAVYYCAYRRTGVPRRDALDNWGQGTMVTVSS
VL: DIQMTQSPSTLSASVGDRVTITCRASQSISSWLAWYQQKPGKAPNLLIYKASTLESGVPSRFSGSGSGTEFTLTISSLQPDDFATYYCQQYNTYWTFGQGTKVEIK
notes: as for B1

The target in this experiment is T1, human plasma kallikrein (PKal) (human, UniProt P03952 20-638).
T1 construct: Active PKal is cleaved at the marked R/I site into two disulfide-linked chains; also called human Pkal; active PKal
T1 sequence (P03952 20-638 limits assumed): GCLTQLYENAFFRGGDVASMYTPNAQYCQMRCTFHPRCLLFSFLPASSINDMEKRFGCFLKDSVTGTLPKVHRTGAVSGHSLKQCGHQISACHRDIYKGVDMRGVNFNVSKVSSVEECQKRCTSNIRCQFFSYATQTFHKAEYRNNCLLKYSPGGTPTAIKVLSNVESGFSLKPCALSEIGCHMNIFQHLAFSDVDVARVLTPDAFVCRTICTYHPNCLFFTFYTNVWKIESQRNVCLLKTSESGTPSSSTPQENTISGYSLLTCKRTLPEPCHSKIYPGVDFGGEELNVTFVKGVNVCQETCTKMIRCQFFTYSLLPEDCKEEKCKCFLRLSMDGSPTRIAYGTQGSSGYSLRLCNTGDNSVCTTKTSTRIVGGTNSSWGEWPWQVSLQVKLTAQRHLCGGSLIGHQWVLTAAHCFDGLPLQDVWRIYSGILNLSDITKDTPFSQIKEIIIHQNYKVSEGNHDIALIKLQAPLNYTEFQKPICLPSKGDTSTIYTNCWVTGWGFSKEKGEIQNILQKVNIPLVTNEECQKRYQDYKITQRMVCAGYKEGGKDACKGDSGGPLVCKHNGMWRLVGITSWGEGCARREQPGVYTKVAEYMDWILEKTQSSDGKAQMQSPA
The experiment is described as follows: Ki,app; Fab inhibition of PKal cleavage of a substrate peptide, Morrison fit. The procedure:
Briefly, PKal and a Fab at various concentrations are incubated together for 1 hour at 30° C. A substrate peptide (cleavable by PKal) is then added to this PKal-Fab mixture. The rate of substrate peptide cleavage/proteolysis is then measured, and plotted against the concentrations of the Fab. This plot is then fit to the Morrison equation, which calculates the K_{i,app} value. The results thus obtained are shown in FIGS. 5A-5D and Table 3 below: […]
In the case of B1, the Ki came to 0.25 nM.

B2 had a Ki of 0.6 nM.

Turning to B3, the Ki came to 0.1 nM.

As for B4, the Ki amounted to 0.1 nM.

As to B5, the Ki turned out to be 0.6 nM.

B6 returned a Ki of 0.2 nM.

B7 gave a Ki of 0.4 nM.

B8: the Ki is 0.33 nM.

On to B9, for which the Ki turned out to be 3.8 nM.

In the case of B10, the Ki amounted to 0.26 nM.

For the molecule B11, the Ki stood at 0.1 nM.

Regarding B12, the Ki was 0.4 nM.

With B13, the Ki stood at 0.3 nM.

On to B14, for which the Ki stood at 0.4 nM.

Turning to B15, the Ki stood at 0.8 nM.
